The values that follow come from the supplement of paper PMC10567573.

B1: ZNF649 (parent)
chain: MTKAQESLTLEDVAVDFTWEEWQF
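Note: lentivirally expressed fusions sorted by FACS into six bins by GFP to DsRed ratio, PSI derived from sequencing read proportions per bin multiplied by bin number.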

Variants of B1 are the subject of the data set. Description: protein stability index of a GFP-peptide fusion (GPS, HEK-293T) (PSI 1-6); higher = more stable. The note with it: c terminus: a fixed tail appended.
As for MTKAQESLTLFDVAVDFTWEEWQF [E11F], the protein stability index worked out at 1.44.
Next, MTKAQESLTLKDVAVDFTWEEWQF [E11K]: 2.62.
Regarding MTKAQESLTLTDVAVDFTWEEWQF [E11T], the protein stability index was found to be 2.86.
On to MTKAQESLTLWDVAVDFTWEEWQF [E11W], for which the protein stability index turned out to be 2.13.
As to MTKAQESLTLHDVAVDFTWEEWQF [E11H], the protein stability index worked out at 2.
For the variant MTKAQESLTLIDVAVDFTWEEWQF [E11I], the protein stability index is 2.25.
Next, MTKAQESLTLEDVAVDFTWEEHQF [W22H]: 4.13.
Take MTKAQESLTLEDVAVDFTWEEDQF [W22D]: the protein stability index was 4.64.
Regarding MTKAQESLTLEDVAVDFTWEEQQF [W22Q], the protein stability index was 4.16.
In the case of MTKAQESLTLEDVAVDFTWEECQF [W22C] it was 3.12; in that of MTKAQESLTLEDVAVDFTWEENQF [W22N], 4.27; in that of MTKAQESLTLEDVAVDFTWEEMQF [W22M], 3.72.
In the case of MTKAQESLTLEDVAVDFTWEETQF [W22T] it was 4.28.
In the case of MTKAQESLTLEDVAVDFTWEERQF [W22R] it was 3.69; in that of MTKAQESLTLEDVAVVFTWEEWQF [D16V], 2.29; in that of MTKAQESLTLEDVAVKFTWEEWQF [D16K], 2.5.
As for MTKAQESLTLEDVAVTFTWEEWQF [D16T], the protein stability index stood at 3.32.
Next, MTKAQESLTLEDVAVHFTWEEWQF [D16H]: 3.23.
Next, MTKAQESLTLEDVAVMFTWEEWQF [D16M]: 2.34; MTKAQESLTLEDVAVFFTWEEWQF [D16F]: 2.94.
Turning to MTKAQESLTLEDVAVAFTWEEWQF [D16A], the protein stability index is 3.34.
Consider MTKAQESLTLEDVAVDFTWEEWPF [Q23P], for which the protein stability index was found to be 3.22.
Turning to MTKAQESLTLEDVAVDFTWEEWMF [Q23M], the protein stability index was 2.72.
For the variant MTKAQESLTLEDVAVDFTWEEWVF [Q23V], the protein stability index came out at 2.08.
As for MTKAQESLTLEDVAVDFTWEEWLF [Q23L], the protein stability index came to 2.05.
Take MTKAQESLTLEDVAVDFTWEEWYF [Q23Y]: the protein stability index came out at 2.38.
In the case of MTKAQESLTLEDVAVDFTWEEWIF [Q23I] it was 1.97; in that of MTKAQESLTLEDVAVDFTWEEWDF [Q23D], 3.51.
Next, MTKAQESLTLEDVAVDFTWEEWHF [Q23H]: 2.02; MTKAQESLTLEDVAVDFTWEEWEF [Q23E]: 3.46.
Next, MTKAQESLTLEDVAVDFTWEEWNF [Q23N]: 2.74; MTKAQESLTLEDVAVDFTWEEWSF [Q23S]: 3.06; MTKAQESLTLEDVAVDFTWEEWQS [F24S]: 3.9.
For MTKAQESLTLEDVAVDFTWEEWQY [F24Y], the protein stability index came out at 3.4.
Next, MTKAQESLTLEDVAVDFTWEEWQK [F24K]: 4.87; MTKAQESLTLEDVAVDFTWEEWQL [F24L]: 3.83.
In the case of MTKAQESLTLEDVAVDFTWEEWQM [F24M] it was 4.49.
Regarding MTKAQESLTLEDVAVDFTWEEWQW [F24W], the protein stability index came out at 2.88.
Next, MTKAQESLTIEDVAVDFTWEEWQF [L10I]: 2.81; MTKAQESLTDEDVAVDFTWEEWQF [L10D]: 4.91; MTKAQESLTAEDVAVDFTWEEWQF [L10A]: 3.8.
Next, MTKAQESLTREDVAVDFTWEEWQF [L10R]: 3.88; MTKAQESLTYEDVAVDFTWEEWQF [L10Y]: 3.24.
Consider MTKAQESLTHEDVAVDFTWEEWQF [L10H], for which the protein stability index stood at 4.42.
Next, MTKAQESLTSEDVAVDFTWEEWQF [L10S]: 4.07.
Next, MTKAQESLTQEDVAVDFTWEEWQF [L10Q]: 4.13; MTKAQESLTTEDVAVDFTWEEWQF [L10T]: 4.05; MTKAQESLTMEDVAVDFTWEEWQF [L10M]: 3.44.
Regarding MTKAQESLTGEDVAVDFTWEEWQF [L10G], the protein stability index turned out to be 4.14.
For the variant MTKAQESLTWEDVAVDFTWEEWQF [L10W], the protein stability index stood at 3.19.
For the variant MTKAQESLTLEPVAVDFTWEEWQF [D12P], the protein stability index was 3.05.
As for MTKAQESLTLESVAVDFTWEEWQF [D12S], the protein stability index is 2.13.
As for MTKAQESLTLEEVAVDFTWEEWQF [D12E], the protein stability index was determined as 3.23.
In the case of MTKAQESLTLECVAVDFTWEEWQF [D12C], the protein stability index is 2.65.
In the case of MTKAQESLTLEKVAVDFTWEEWQF [D12K] it was 2.7; in that of MTKAQESLTLEIVAVDFTWEEWQF [D12I], 2.95; in that of MTKAQESLTLEVVAVDFTWEEWQF [D12V], 1.92.
In the case of MTKAQESLTLEQVAVDFTWEEWQF [D12Q] it was 2.84; in that of MTKAQESLTLETVAVDFTWEEWQF [D12T], 2.2; in that of MTKAQESLTLEYVAVDFTWEEWQF [D12Y], 4.33.
In the case of MTKAQESLTLEDVAVDFNWEEWQF [T18N] it was 3.47; in that of MTKAQESLTLEDVAVDFQWEEWQF [T18Q], 2.75.
For the variant MTKAQESLTLEDVAVDFRWEEWQF [T18R], the protein stability index was determined as 2.17.
In the case of MTKAQESLTLEDVAVDFPWEEWQF [T18P] it was 3.16.
For MTKAQESLTLEDVAVDFSWEEWQF [T18S], the protein stability index was 3.15.
Turning to MTKAQESLTLEDVAVDFEWEEWQF [T18E], the protein stability index worked out at 3.32.
In the case of MTKAQESLTLEDVAVDFWWEEWQF [T18W] it was 1.51; in that of MTKAQESLTLEDVAVDFAWEEWQF [T18A], 3.87.
Take MTKAQESLTLEDVAVDFKWEEWQF [T18K]: the protein stability index worked out at 2.48.
In the case of MTKAQELLTLEDVAVDFTWEEWQF [S7L] it was 2.43; in that of MTKAQEELTLEDVAVDFTWEEWQF [S7E], 3.93; in that of MTKAQERLTLEDVAVDFTWEEWQF [S7R], 3.55.
Take MTKAQESLTLEDVSVDFTWEEWQF [A14S]: the protein stability index was 3.06.
Take MTKAQESLTLEDVFVDFTWEEWQF [A14F]: the protein stability index came out at 2.08.
In the case of MTKAQESLTLEDVWVDFTWEEWQF [A14W] it was 3.29.
Consider MTKAQESLTLEDVMVDFTWEEWQF [A14M], for which the protein stability index was 2.46.
For MTKAQESLTLEDVHVDFTWEEWQF [A14H], the protein stability index came to 3.12.
Next, LTKAQESLTLEDVAVDFTWEEWQF [M1L]: 2.94; WTKAQESLTLEDVAVDFTWEEWQF [M1W]: 2.07; VTKAQESLTLEDVAVDFTWEEWQF [M1V]: 3.07.
Next, FTKAQESLTLEDVAVDFTWEEWQF [M1F]: 2.69.
On to GTKAQESLTLEDVAVDFTWEEWQF [M1G], for which the protein stability index was found to be 3.43.
In the case of TTKAQESLTLEDVAVDFTWEEWQF [M1T] it was 3.79; in that of NTKAQESLTLEDVAVDFTWEEWQF [M1N], 4.67.
In the case of ATKAQESLTLEDVAVDFTWEEWQF [M1A] it was 3.33.
In the case of MTKAQESLTLEDEAVDFTWEEWQF [V13E] it was 4.25; in that of MTKAQESLTLEDQAVDFTWEEWQF [V13Q], 4.18; in that of MTKAQESLTLEDIAVDFTWEEWQF [V13I], 3.47.
Take MTKAQESLTLEDAAVDFTWEEWQF [V13A]: the protein stability index turned out to be 3.98.
As for MTKAQESLTLEDLAVDFTWEEWQF [V13L], the protein stability index stood at 3.23.
Take MTKAQESLTLEDMAVDFTWEEWQF [V13M]: the protein stability index was 3.54.
Consider MTKAQESLTLEDRAVDFTWEEWQF [V13R], for which the protein stability index is 3.45.
Turning to MTKAQESLTLEDNAVDFTWEEWQF [V13N], the protein stability index was 4.33.
With MTKAQESLTLEDWAVDFTWEEWQF [V13W], the protein stability index was 2.36.
